Substrate: O=[N+]([O-])c1ccc(O)cc1
Experiment: cells, lysate or membranes named
Details: other: Lineweaver-Burk plot; rat liver microsomes; pH 7.4
Protocol: The rats were fasted for 12 h with free access to water and then sacrificed by cervical dislocation. The liver was removed promptly and washed with ice-cold physiological saline solution to yellowish brown. […] The liver homogenate solution was centrifuged at 4 °C for 20 min at 12,000 r·min^−1 and supernatant fraction was reserved. The supernatant per millilitre was added with 0.1 mL CaCl2 (88 mM), gently shaken and kept at 0 to 4 °C for 5 min. The mixed solution was transferred to centrifuge tubes and centrifuged at 4 °C for 30 min at 15,000 r·min^−1. […] Protein concentration of the microsomes was determined by the method of Bradford. […]
The apparent Km (Michaelis constant) value was calculated according to the Michaelis-Menten equation and Lineweaver-Burk plot.
Group 1 (normal control) was added with phosphate buffer, group 2 (flavonoids reagent group) were added with flavonoids, and group 3 was given clomethiazole as positive control. […] The concentrations of probe substrate metabolites were calculated from the standard curves. The percentage of inhibition was calculated using the formula: %Inhibition = ((A0 − A1)/A0) × 100%, in which A0 was the concentration of probe substrate metabolite of group 1 and A1 was the concentration of probe substrate metabolite of group 2 and 3. The IC50 values were calculated based on the concentration-effect linear regression curve.

B1: CYP2E1 (Rattus norvegicus) (protein)
chain: MAVLGITIALLVWVATLLVISIWKQIYNSWNLPPGPFPLPILGNIFQLDLKDIPKSFTKLAKRFGPVFTLHLGSRRIVVLHGYKAVKEVLLNHKNEFSGRGDIPVFQEYKNKGIIFNNGPTWKDVRRFSLSILRDWGMGKQGNEARIQREAQFLVEELKKTKGQPFDPTFLIGCAPCNVIADILFNKRFDYNDKKCLRLMSLFNENFYLLSTPWIQLYNNFADYLRYLPGSHRKIMKNVSEIKQYTLEKAKEHLQSLDINCARDVTDCLLIEMEKEKHSQEPMYTMENVSVTLADLFFAGTETTSTTLRYGLLILMKYPEIEEKLHEEIDRVIGPSRVPAVRDRLDMPYMDAVVHEIQRFINLVPSNLPHEATRDTVFQGYVIPKGTVVIPTLDSLLYDSHEFPDPEKFKPEHFLNENGKFKYSDYFKAFSAGKRVCVGEGLARMELFLLLSAILQHFNLKSLVDPKDIDLSPVTVGFGSIPPQFKLCVIPRS
Question: For B1, which Km is on record?
Answer: 90.92 µM

Reference: article PMC6273018, “Effects of Flavonoids in Lysimachia clethroides Duby on the Activities of Cytochrome P450 CYP2E1 and CYP3A4 in Rat Liver Microsomes” (Molecules, 2016)
